Data published in the supplement of paper PMC10724198.
± gives the standard deviation of the averaged measurements.
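Note: PSI is a weighted mean of sequencing reads over stability bins, variants kept only with over 10 reads, mCherry proximal and sfGFP distal, peptide attached via GGGS linker.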

These sequences were tested on Saccharomyces cerevisiae (assay: protein stability index of tFT-peptide fusion (C-terminal peptide) (PSI (0-1 scale)); higher = more stable (slower turnover)). Conditions: genetic background: das1 deletion; temperature: 30 C.
Procedure: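 MPS profiling in S. cerevisiae of the tFT-X12 degron library: putative degron peptides plus stable controls, 12 aa, fused to the C-terminus of a sfGFP-mCherry timer. Cells are FACS-sorted into 8 mCherry/sfGFP bins and deep-sequenced. PSI runs from 0 (unstable) to 1 (stable). Backgrounds are wild type, das1Δ and doa10Δ at 30 °C, and wild type, das1Δ, cdc34-1 and cdc53-1 at 37 °C; 2-3 technical replicates each.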
Work on FPVSSRSFSFIP yielded a protein stability index of 0.666 ± 0.02.
Sequence FRFYCGLVIANV has a protein stability index of 0.385 ± 0.019.
FSCLCLCVATSG gave a protein stability index of 0.221 ± 0.019.
FSFSAFARFLVI showed a protein stability index of 0.604 ± 0.033.
FSFSCFFFVLFV showed a protein stability index of 0.0913 ± 0.018.
With FSFSFYFALASF the protein stability index was 0.425 ± 0.018.
FTFLFPLRLLPL showed a protein stability index of 0.377 ± 0.036.
FVFCGVVFLFLL showed a protein stability index of 0.395 ± 0.058.
Work on FVFIFIRVFFFR yielded a protein stability index of 0.189 ± 0.044.
Sequence FVFLVLGPYAMF has a protein stability index of 0.354 ± 0.028.
For FVGVLVLCVCRC, the protein stability index was 0.17 ± 0.029.
With FVLFCWFFCIVW the protein stability index was 0.263 ± 0.011.
In the case of FVSFFRWLLVSI, the protein stability index is reported as 0.358 ± 0.039.
Work on FYAAILCLLFSC yielded a protein stability index of 0.45 ± 0.035.
For GCDVWCLVLRMG, the protein stability index was 0.517 ± 0.0083.
In the case of GCFVDRVYVVVV, the protein stability index is reported as 0.381 ± 0.026.
In the case of GCLFASWPLAVC, the protein stability index is reported as 0.214 ± 0.022.
GCSVSLCCVFVV gave a protein stability index of 0.36 ± 0.028.
With GCVGLSFCVWVG the protein stability index was 0.323 ± 0.031.
In the case of GDSVRVIIFCLN, the protein stability index is reported as 0.339 ± 0.054.
Work on GEVLWAVLLVSC yielded a protein stability index of 0.215 ± 0.029.
GFFCFLYFVVMF gave a protein stability index of 0.18 ± 0.026.
GFIRVRHLRSLC was tested, and the protein stability index was 0.645 ± 0.019.
GFSFFFIFWFFF gave a protein stability index of 0.35 ± 0.018.
GFVCFIHLFLCF showed a protein stability index of 0.334 ± 0.027.
With GFVVYLLLSYLF the protein stability index was 0.279 ± 0.039.
Work on GGFHWCPSASRG yielded a protein stability index of 0.647 ± 0.031.
In the case of GGGGLRVVVWLV, the protein stability index is reported as 0.501 ± 0.021.
With GGRLGRAGGGGR the protein stability index was 0.642 ± 0.024.
GGVVLVVVFCCV gave a protein stability index of 0.217 ± 0.025.
GHFILFWVFCFM gave a protein stability index of 0.31 ± 0.046.
GHSALWQVPRLM was tested, and the protein stability index was 0.65 ± 0.048.
GLCGVVVGCWVR was tested, and the protein stability index was 0.286 ± 0.027.
Sequence GLDLLTKFSKEC has a protein stability index of 0.617 ± 0.02.
GLFFLCLLSMCF was tested, and the protein stability index was 0.306 ± 0.029.
GLNKGKYIKLYT showed a protein stability index of 0.635 ± 0.035.
Sequence GLSVLLTCIHFV has a protein stability index of 0.482 ± 0.013.
In the case of GNRDLVNTSVEG, the protein stability index is reported as 0.619 ± 0.045.
With GPVRSPPSPTPR the protein stability index was 0.682 ± 0.015.
With GQFVISVRFLYE the protein stability index was 0.412 ± 0.024.
For GRGVRLRVRLLL, the protein stability index was 0.606 ± 0.022.
GRVETIEFLFLR gave a protein stability index of 0.368 ± 0.038.
GRWAFFTWLRWS showed a protein stability index of 0.62 ± 0.047.
Sequence GSDGVGGTVLYA has a protein stability index of 0.634 ± 0.021.
For GSLVLSCLMSRA, the protein stability index was 0.42 ± 0.034.
Sequence GTIFLIRVLLFG has a protein stability index of 0.222 ± 0.024.
GVARALFLWKAV showed a protein stability index of 0.65 ± 0.022.
Sequence GVLTVVLQVGVV has a protein stability index of 0.309 ± 0.038.
Sequence GVMICLDLLLSV has a protein stability index of 0.377 ± 0.025.
GVVCCGFFFLVV showed a protein stability index of 0.401 ± 0.024.
For GWCLLRVLVLVW, the protein stability index was 0.0937 ± 0.023.
Sequence GYRRCCHFLFTL has a protein stability index of 0.622 ± 0.023.
HHRLRQGLRRIN was tested, and the protein stability index was 0.638 ± 0.0082.
HPPPTLVPPHPR showed a protein stability index of 0.674 ± 0.011.
HRLQFKGYPICA was tested, and the protein stability index was 0.235 ± 0.048.
For HRPRPLLKLLAS, the protein stability index was 0.585 ± 0.083.
HSRRRRPTPQSL was tested, and the protein stability index was 0.651 ± 0.036.
HVCKLAMFQWYF gave a protein stability index of 0.609 ± 0.012.
For ICIFWLITGLWL, the protein stability index was 0.336 ± 0.03.
Work on IFLCRNGAVFIC yielded a protein stability index of 0.733 ± 0.016.
Sequence IFRVTGFPIYIF has a protein stability index of 0.339 ± 0.021.
IGFSPSFQLYSA gave a protein stability index of 0.666 ± 0.0083.
IGILVTAVPVFD was tested, and the protein stability index was 0.386 ± 0.042.
In the case of IIAGVWFLEILG, the protein stability index is reported as 0.333 ± 0.027.
Sequence IIGCIAICLMVN has a protein stability index of 0.0942 ± 0.042.
With IKCVPLVWRLTV the protein stability index was 0.534 ± 0.038.
Sequence IKIQPKKRISLI has a protein stability index of 0.632 ± 0.039.
For ILAVMFEIYAIL, the protein stability index was 0.349 ± 0.042.
ILCYVWLVFSGF gave a protein stability index of 0.223 ± 0.029.
In the case of INHVIHAKLRFS, the protein stability index is reported as 0.643 ± 0.011.
ISSAGHNIRFLA was tested, and the protein stability index was 0.658 ± 0.025.
ISTRLALCACVC was tested, and the protein stability index was 0.245 ± 0.019.
Work on IVRDTECGIFYR yielded a protein stability index of 0.642 ± 0.016.
Sequence IVVWCGIRYSIR has a protein stability index of 0.263 ± 0.035.
Work on KKKEILVYIIQE yielded a protein stability index of 0.438 ± 0.029.
With KRLALVSCSICG the protein stability index was 0.446 ± 0.025.
KRRKERIKIQQI was tested, and the protein stability index was 0.634 ± 0.073.
With KVGPVLLLCRRS the protein stability index was 0.637 ± 0.013.

Same assay, conditions: genetic background: das1 deletion; temperature: 37 C
FPVSSRSFSFIP was tested, and the protein stability index was 0.732 ± 0.019.
In the case of FRFYCGLVIANV, the protein stability index is reported as 0.51729 ± 0.00021.
FSCLCLCVATSG gave a protein stability index of 0.379 ± 0.015.
In the case of FSFSAFARFLVI, the protein stability index is reported as 0.6999 ± 0.0034.
With FSFSCFFFVLFV the protein stability index was 0.11 ± 0.022.
FSFSFYFALASF gave a protein stability index of 0.495 ± 0.011.
Work on FTFLFPLRLLPL yielded a protein stability index of 0.478 ± 0.015.
Sequence FVFCGVVFLFLL has a protein stability index of 0.519 ± 0.018.
FVFIFIRVFFFR showed a protein stability index of 0.308 ± 0.017.
Work on FVFLVLGPYAMF yielded a protein stability index of 0.609 ± 0.048.
FVGVLVLCVCRC was tested, and the protein stability index was 0.247 ± 0.021.
FVLFCWFFCIVW was tested, and the protein stability index was 0.3625 ± 0.00095.
For FVSFFRWLLVSI, the protein stability index was 0.4432 ± 0.0011.
With FYAAILCLLFSC the protein stability index was 0.546 ± 0.013.
For GCDVWCLVLRMG, the protein stability index was 0.676 ± 0.031.
GCFVDRVYVVVV gave a protein stability index of 0.546 ± 0.016.
Sequence GCLFASWPLAVC has a protein stability index of 0.2564 ± 0.0019.
GCSVSLCCVFVV showed a protein stability index of 0.525 ± 0.01.
GCVGLSFCVWVG was tested, and the protein stability index was 0.523 ± 0.026.
Work on GDSVRVIIFCLN yielded a protein stability index of 0.686 ± 0.068.
With GEVLWAVLLVSC the protein stability index was 0.343 ± 0.0077.
With GFFCFLYFVVMF the protein stability index was 0.296 ± 0.013.
GFIRVRHLRSLC was tested, and the protein stability index was 0.7128 ± 0.0023.
Work on GFSFFFIFWFFF yielded a protein stability index of 0.503 ± 0.034.
In the case of GFVCFIHLFLCF, the protein stability index is reported as 0.425 ± 0.027.
In the case of GFVVYLLLSYLF, the protein stability index is reported as 0.482 ± 0.016.
In the case of GGFHWCPSASRG, the protein stability index is reported as 0.7536 ± 0.0026.
For GGGGLRVVVWLV, the protein stability index was 0.6625 ± 0.0052.
Work on GGRLGRAGGGGR yielded a protein stability index of 0.7168 ± 0.00089.
GGVVLVVVFCCV gave a protein stability index of 0.352 ± 0.01.
Sequence GHFILFWVFCFM has a protein stability index of 0.453 ± 0.031.
For GHSALWQVPRLM, the protein stability index was 0.7535 ± 0.0069.
GLCGVVVGCWVR showed a protein stability index of 0.484 ± 0.016.
In the case of GLDLLTKFSKEC, the protein stability index is reported as 0.741 ± 0.015.
In the case of GLFFLCLLSMCF, the protein stability index is reported as 0.423 ± 0.023.
GLNKGKYIKLYT was tested, and the protein stability index was 0.733 ± 0.08.
Work on GLSVLLTCIHFV yielded a protein stability index of 0.598 ± 0.01.
Work on GNRDLVNTSVEG yielded a protein stability index of 0.715 ± 0.051.
For GPVRSPPSPTPR, the protein stability index was 0.73559 ± 0.00023.
Sequence GQFVISVRFLYE has a protein stability index of 0.5374 ± 0.0031.
Sequence GRGVRLRVRLLL has a protein stability index of 0.7 ± 0.019.
With GRVETIEFLFLR the protein stability index was 0.525 ± 0.0074.
GRWAFFTWLRWS gave a protein stability index of 0.6825 ± 0.0042.
Sequence GSDGVGGTVLYA has a protein stability index of 0.729 ± 0.015.
In the case of GSLVLSCLMSRA, the protein stability index is reported as 0.573 ± 0.0029.
Work on GTIFLIRVLLFG yielded a protein stability index of 0.387 ± 0.029.
GVARALFLWKAV showed a protein stability index of 0.7486 ± 0.0021.
GVLTVVLQVGVV gave a protein stability index of 0.428 ± 0.019.
GVMICLDLLLSV gave a protein stability index of 0.539 ± 0.014.
Sequence GVVCCGFFFLVV has a protein stability index of 0.57 ± 0.018.
Work on GWCLLRVLVLVW yielded a protein stability index of 0.107 ± 0.0087.
In the case of GYRRCCHFLFTL, the protein stability index is reported as 0.747 ± 0.00099.
With HHRLRQGLRRIN the protein stability index was 0.7023 ± 0.003.
HPPPTLVPPHPR was tested, and the protein stability index was 0.727 ± 0.0074.
HRLQFKGYPICA was tested, and the protein stability index was 0.371 ± 0.015.
In the case of HRPRPLLKLLAS, the protein stability index is reported as 0.67983 ± 0.0006.
HSRRRRPTPQSL was tested, and the protein stability index was 0.636 ± 0.011.
With HVCKLAMFQWYF the protein stability index was 0.72211 ± 0.00042.
ICIFWLITGLWL gave a protein stability index of 0.487 ± 0.019.
For IFLCRNGAVFIC, the protein stability index was 0.872 ± 0.019.
With IFRVTGFPIYIF the protein stability index was 0.4535 ± 0.0037.
Work on IGFSPSFQLYSA yielded a protein stability index of 0.77318 ± 9.2e-05.
IGILVTAVPVFD gave a protein stability index of 0.5522 ± 0.0021.
IIAGVWFLEILG showed a protein stability index of 0.527 ± 0.012.
Sequence IIGCIAICLMVN has a protein stability index of 0.0938 ± 0.019.
With IKCVPLVWRLTV the protein stability index was 0.6384 ± 0.0023.
For IKIQPKKRISLI, the protein stability index was 0.702 ± 0.017.
ILAVMFEIYAIL showed a protein stability index of 0.533 ± 0.0094.
ILCYVWLVFSGF showed a protein stability index of 0.382 ± 0.01.
INHVIHAKLRFS was tested, and the protein stability index was 0.72 ± 0.03.
Work on ISSAGHNIRFLA yielded a protein stability index of 0.715 ± 0.008.
Work on ISTRLALCACVC yielded a protein stability index of 0.3009 ± 0.0026.
IVRDTECGIFYR showed a protein stability index of 0.735 ± 0.023.
With IVVWCGIRYSIR the protein stability index was 0.484 ± 0.0071.
For KKKEILVYIIQE, the protein stability index was 0.578 ± 0.018.
With KRLALVSCSICG the protein stability index was 0.6239 ± 0.002.
In the case of KRRKERIKIQQI, the protein stability index is reported as 0.737 ± 0.089.
In the case of KVGPVLLLCRRS, the protein stability index is reported as 0.699 ± 0.0081.
